From patent US20180334496A1 (KODIAK SCIENCES, published 2018)
Substitutions are numbered along the chain they refer to. Where “and” joins values, the source holds several entries; their conditions need not be identical. Identical values can stand only once. Like-named read-outs stand apart in the source and are kept apart here. Each block holds one binder with its values, some of them ahead of it.

What was measured:
[1] = target: T1, human Complement Factor D (serum purified) (human, UniProt P00746 26-253); assay: cell-based or functional assay
[2] = target: T1, human Complement Factor D (serum …); assay: SPR (Biacore), conjugate captured on Protein A chip, serum purified human CFD as analyte, 25 degrees
[3] = target: T1, human Complement Factor D (serum …); assay: KinExA in solution, 37 degrees; free CFD captured on OG1931 beads and detected with KCD004-A647
[4] = target: T1, human Complement Factor D (serum …); assay: SPR (Biacore), antibody captured on Protein A chip, serum purified human CFD as analyte, 25 degrees
[5] = target: T2, serum purified human Complement Factor D (human, UniProt P00746 26-253); assay: SPR Biacore T200, biotinylated OG1965 captured on neutravidin CM5 chip, single cycle kinetics, 37 C
T2 construct: Serum purified protein flowed over the captured antibodies; also called CFD; human CFD

[6] = target: T3, recombinant cynomologus Complement Factor D (cynomolgus); assay: SPR Biacore, antibody on protein A chip, cyCFD in flow, single cycle kinetics, 37 C
T3 construct: also called cyCFD; cyno CFD

[7] = target: T2, serum purified human Complement Factor D; assay: SPR Biacore, antibody on protein A chip, single cycle kinetics, 37 C
[8] = target: T2, serum purified human Complement Factor D; assay: SPR Biacore, antibody on protein A chip, single cycle kinetics, 25 C
[9] = target: T2, serum purified human Complement Factor D; assay: SPR Biacore, antibody on protein A chip, single cycle kinetics, 37 C; remark: listed apart in the source
[10] = target: T2, serum purified human Complement Factor D; assay: SPR Biacore, antibody on protein A chip, single cycle kinetics, 25 C; remark: listed apart in the source
[11] = target: T2, serum purified human Complement Factor D; assay: SPR Biacore T200, biotinylated OG1965 captured on neutravidin CM5 chip, single cycle kinetics, 25 C
[12] = target: T2, serum purified human Complement Factor D; assay: SPR Biacore, 37 C
[13] = target: T2, serum purified human Complement Factor D; assay: SPR Biacore, 37 C; remark: listed apart in the source
[14] = target: T2, serum purified human Complement Factor D; assay: SPR Biacore, 25 C
[15] = target: T2, serum purified human Complement Factor D; assay: SPR Biacore, 25 C; remark: listed apart in the source
[16] = target: T4, human Complement Factor D (CFD), purified from human serum (human, UniProt P00746 26-253); assay: SPR Biacore, full-length IgG captured on protein A chip, serum purified CFD
T4 construct: serum purified (CompTech A136); also called serum purified CFD; hCFD-Comptech

[17] = target: T5, human complement factor D purified from serum (human, UniProt P00746 26-253); assay: cell-based or functional assay
[18] = target: T5, human complement factor D purified from …
[19] = target: T6, recombinant human CFD mutant 1 (R157A, R207A), His-tagged (human, UniProt P00746 26-253); assay: ELISA
T6 construct: positions are linear positions in the mature protein; also called rhCFD-mut1-His; Mut1

[20] = target: T6, recombinant human CFD mutant 1 (R157A, …); assay: ELISA, Mut1 Binding, Bin 2
[21] = target: T7, recombinant cynomolgus CFD, His-tagged (cynomolgus); assay: SPR MX96
T7 construct: also called rcyCFD-His; recombinant Cyno-CFD

[22] = target: T8, recombinant human CFD, His-tagged (human, UniProt P00746 26-253); assay: SPR MX96
T8 construct: also called rhCFD-His

[23] = target: T5, human complement factor D purified from …; assay: SPR MX96
[24] = target: T4, human Complement Factor D (CFD), …; assay: SPR MX96, mAbs amine-coupled, CFD injected
[25] = target: T5, human complement factor D purified from …; remark: listed apart in the source
[26] = target: T6, recombinant human CFD mutant 1 (R157A, …); assay: SPR MX96
[27] = target: T6, recombinant human CFD mutant 1 (R157A, …); assay: ELISA; remark: listed apart in the source
Wherever CFD Enzymatic activity (% of Neg Ctrl) is given: test concentration or dose not given here.

T1 sequence (P00746 26-253): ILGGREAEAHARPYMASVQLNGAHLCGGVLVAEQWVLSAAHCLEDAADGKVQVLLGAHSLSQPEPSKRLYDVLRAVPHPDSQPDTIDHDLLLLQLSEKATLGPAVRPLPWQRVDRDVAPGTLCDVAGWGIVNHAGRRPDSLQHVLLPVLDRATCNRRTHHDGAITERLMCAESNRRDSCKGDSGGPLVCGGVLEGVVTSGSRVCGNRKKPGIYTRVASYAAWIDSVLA
T5 sequence (P00746 26-253): as above
T4 sequence (P00746 26-253): as above
T8 sequence (P00746 26-253 limits assumed): as the sequence (P00746 26-253) above
T2 sequence (P00746 26-253): as above
T6 sequence (P00746 26-253 R182A/R232A limits assumed): as the sequence (P00746 26-253) above, with R157A, R207A counted along it

B1: OG1970 (other)
heavy: EVQLVESGGGLVQPGGSLRLSCAASGYTFTDYYINWVRQAPGKGLEWIGDINPITGDTDYNADFKRRFTFSLDTSKSTAYLQMSSLRAEDTAVYYCTREGPSFAYWGQGTLVTVSSASTKGPSVFPLAPSSKSTSGGTAALGCLVKDYFPEPVTVSWNSGALTSGVHTFPAVLQSSGLYSLSSVVTVPSSSLGTQTYICNVNHKPSNTKVDKKVEPKSCDKTHTCPPCPAPEAAGAPSVFLFPPKPKDTLMISRTPEVTCVVVDVSHEDPEVKFNWYVDGVEVHNAKTKPREEQYNSTYRVVSVLTVLHQDWLNGKEYKCKVSNKALPAPIEKTISKAKGQPREPQVYTLPPSREEMTKNQVSLTCLVKGFYPSDIAVEWESNGQPENNYKTTPPVLDSDGSFFLYSKLTVDKSRWQQGNVFSCSVMHEALHNHYTQKSLSCSPGK
light: DIQLTQSPSSLSASVGDRVTITCRSSQTIVHSNGDTYLEWYQQKPGKAPNLLIRKVSNRFSGVPSRFSGSGSGTDFTLTISSLQPEDFATYYCFQGSHVPVTFGQGTKVEIKRTVAAPSVFIFPPSDEQLKSGTASVVCLLNNFYPREAKVQWKVDNALQSGNSQESVTEQDSKDSTYSLSSTLTLSKADYEKHKVYACEVTHQGLSSPVTKSFNRGEC
modifications: polymer OG1802 (9-arm HEMA-PC polymer, about 750-800 kDa, maleimide) bonded through the sulfhydryl of C443 (EU numbering; 442C in SEQ ID NO: 183), on one of the heavy chains
notes: Antibody-polymer conjugate: decapped OG1965 conjugated to polymer OG1802; The stoichiometry of antibody to polymer is described as 1:1; also called OG1965 bioconjugate; OG1965 conjugated to polymer OG1802
EC50 (nM) in hemolysis assay (rabbit RBC, normal human serum) [1]: 1.65 nM
Kd [2]: 6.14 pM
kon [2]: 2.16e+07 M⁻¹ s⁻¹
Kd [3]: 8.07 pM
kon [3]: 3.67e+07 M⁻¹ s⁻¹

B2: OG1965 (antibody, IgG1, V domains shown)
VH: EVQLVESGGGLVQPGGSLRLSCAASGYTFTDYYINWVRQAPGKGLEWIGDINPITGDTDYNADFKRRFTFSLDTSKSTAYLQMSSLRAEDTAVYYCTREGPSFAYWGQGTLVTVSS
VL: DIQLTQSPSSLSASVGDRVTITCRSSQTIVHSNGDTYLEWYQQKPGKAPNLLIRKVSNRFSGVPSRFSGSGSGTDFTLTISSLQPEDFATYYCFQGSHVPVTFGQGTKVEIKR
notes: also called 34I54I59D84S/54R101V; 34I54I59D84S (heavy) / 54R101V (light)
EC50 (nM) in hemolysis assay (rabbit RBC, normal human serum) [1]: 1.74 nM
Kd [4]: 2.5 pM
kon [4]: 2.52e+07 M⁻¹ s⁻¹
Kd [3]: 5.86 pM
kon [3]: 3.06e+07 M⁻¹ s⁻¹

B3: 34I54I59D84S / 54R101V (antibody, human IgG1, V domains shown)
VH: B2 VH
VL: B2 VL
notes: Human IgG1 kappa; also called OG1965
Kd [5]: 9.56 pM
koff [5]: 0.000241 s⁻¹
kon [5]: 2.55e+07 M⁻¹ s⁻¹
Kd [6]: 28 pM
koff [6]: 0.000978 s⁻¹
kon [6]: 3.49e+07 M⁻¹ s⁻¹
Kd [7]: 5.04 pM
koff [7]: 0.000202 s⁻¹
kon [7]: 4e+07 M⁻¹ s⁻¹
Kd [8]: 4.37 pM
koff [8]: 9.02e-05 s⁻¹
kon [8]: 2.06e+07 M⁻¹ s⁻¹
Kd [9]: 5.04 pM
koff [9]: 0.000202 s⁻¹
kon [9]: 4e+07 M⁻¹ s⁻¹
Kd [10]: 4.37 pM
koff [10]: 9.02e-05 s⁻¹
kon [10]: 2.06e+07 M⁻¹ s⁻¹
Kd [11]: 3.64 pM
koff [11]: 5.08e-05 s⁻¹
kon [11]: 1.4e+07 M⁻¹ s⁻¹

B4: 31S54I59D / 54R101V (antibody, V domains shown)
VH: B2 VH with D31S, I34M, S84N
VL: B2 VL
notes: KCD119 TAF variant
Kd [12]: 8.17 pM
koff [12]: 0.000227 s⁻¹
kon [12]: 2.78e+07 M⁻¹ s⁻¹
Kd [13]: 6.91 pM
koff [13]: 0.000214 s⁻¹
kon [13]: 3.09e+07 M⁻¹ s⁻¹
Kd [7]: 6.05 pM and 6.91 pM and 8.17 pM
koff [7]: 0.00021 s⁻¹ and 0.000214 s⁻¹ and 0.000227 s⁻¹
kon [7]: 3.48e+07 M⁻¹ s⁻¹ and 3.09e+07 M⁻¹ s⁻¹ and 2.78e+07 M⁻¹ s⁻¹
Kd [8]: 7.79 pM and 3.66 pM and 8.36 pM
koff [8]: 7.94e-05 s⁻¹ and 5.12e-05 s⁻¹ and 0.00012 s⁻¹
kon [8]: 1e+07 M⁻¹ s⁻¹ and 1.4e+07 M⁻¹ s⁻¹ (2×)
Kd [14]: 3.66 pM
koff [14]: 5.12e-05 s⁻¹
kon [14]: 1.4e+07 M⁻¹ s⁻¹
Kd [15]: 8.36 pM
koff [15]: 0.00012 s⁻¹
kon [15]: 1.44e+07 M⁻¹ s⁻¹

B7: KCD121 (antibody, V domains shown)
VH: EVQLQQSGPELVKPGASVKISCKASGYTFTDYYKNWMRQRHGESLEWIGDINPNNGDTSYNQKFRGKATLTVDKSSSTAFMELRSLTSEDSAVYYCAREGPSFAYWGQGTLVTVSA
VL: DVLMTQTPLSLPVSLGDQASISCRSNQTIVHSNGDTYLEWYLQKPGQSPNLLIYKVSNRFSGVPDRFSGSGSGTDFTLRISRVEAEDLGVYYCFQGSHVPPTFGGGTKLEIK
notes: chimeric
CFD Enzymatic activity (% of Neg Ctrl) [17]: 16.7 % of Neg Ctrl
Kd [18]: 293 pM
Mut1 Binding (% wt) [19]: 0.602 % wt
binding result [20]: no binding
Kd [21]: 2900 pM
Kd [22]: 1300 pM
Kd [23]: 1800 pM

B8: KCD005 (antibody, V domains shown)
VH: EVQLQQSGPELVKPGASVKISCKASGYTFTDHYMNWVKQSHGKSLEWIGDINPNNGGTSCNQKFKGKATLTVDKSSSTAYMELRSLTSGDSAVYYCTREGASFAFWGQGTLVTVSA
VL: B7 VL with N26S, T28S, N50K, R79K, P101V, G105A, I111L
notes: chimeric
CFD Enzymatic activity (% of Neg Ctrl) [17]: 49.2 % of Neg Ctrl
Kd [18]: 726 pM
Mut1 Binding (% wt) [19]: 1.79 % wt
binding result [20]: no binding
Kd [21]: 2300 pM
Kd [22]: 1200 pM
Kd [23]: 1400 pM

B9: KCD123 (antibody, V domains shown)
VH: B7 VH with Q3H, Y32F, D57G, S59N, R65K, F80Y
VL: B7 VL with N26S, R79K
notes: chimeric
CFD Enzymatic activity (% of Neg Ctrl) [17]: 18.7 % of Neg Ctrl
Kd [18]: 277 pM
Mut1 Binding (% wt) [19]: 2.91 % wt
binding result [20]: no binding
Kd [21]: 2900 pM
Kd [22]: 1300 pM
Kd [23]: 2800 pM

Second part, the binder after the results:

Kd [16]: 230 pM
B5: KCD119 TAF (antibody, V domains shown)
VH: B2 VH with I34M, I54N, D59S, S84N
VL: DIQLTQSPSSLSASVGDRVTITCRSSQTIVHSNGDTYLEWYQQKPGKAPNLLIYKVSNRFSGVPSRFSGSGSGTDFTLTISSLQPEDFATYYCFQGSHVPPTFGQGTKVEIK
notes: full IgG captured on protein A; also called TAF KCD119; KCD119 CDRs grafted into the TAF framework

Kd [13]: 6.13 pM
koff [13]: 0.000174 s⁻¹
kon [13]: 2.84e+07 M⁻¹ s⁻¹
Kd [7]: 6.13 pM
koff [7]: 0.000174 s⁻¹
kon [7]: 2.84e+07 M⁻¹ s⁻¹
Kd [8]: 6.13 pM
koff [8]: 9.14e-05 s⁻¹
kon [8]: 1.49e+07 M⁻¹ s⁻¹
Kd [14]: 6.13 pM
koff [14]: 9.14e-05 s⁻¹
kon [14]: 1.49e+07 M⁻¹ s⁻¹
B6: 31S54I59D84S / 54R101V (antibody, V domains shown)
VH: B2 VH with D31S, I34M
VL: B2 VL
notes: also called 31554159D845 / 54R101V

Kd [24]: 375 pM and 857 pM
Kd [16]: 40 pM
B10: KCD119 (antibody, V domains shown)
VH: B7 VH with K34T, N55T, G66V, S77G, F80Y, E82G, A97T
VL: B7 VL with N26S, R79K, K108T
notes: mouse variable domains; full IgG, captured on protein A; also called KCD119-mouse monoclonal antibody; Mouse KCD119

Kd [25]: 997 pM
Kd [21]: 21000 pM
Kd [26]: 830 pM
Kd [23]: 1900 pM
Mut1 Binding (% wt) [27]: 62.3 % wt
B11: KCD048 (antibody, V domains shown)
VH: EVQLQQSGADLVKPGASVKLSCTASGFNIKATYMHWVRQRPEKGLEWIGRIDPANGHTIYDPQFQGKATITSDTSSNTAYLQLNSLTSEDTAVYYCAEAMDYWGQGTSVTVSS
VL: QIVLTQSPAIMSASPGEKVTLTCSATSSVSYMYWYQQKPGSSPRLLIYDTSNLASGVPVRFSGSGSGTSYSLTISRMEAEDDATYYCQQWSNYPFTFGGGTKLEIK
notes: chimeric
